According to patent US20230220057A1 (STAIDSON BEIJING BIOPHARMACEUTICALS, published 2023):
Changes are numbered by the printed parent chain.

T1: NT3 (UniProt P20783 139-257)
T1 construct: also called neurotrophin-3
T1 sequence (looked up): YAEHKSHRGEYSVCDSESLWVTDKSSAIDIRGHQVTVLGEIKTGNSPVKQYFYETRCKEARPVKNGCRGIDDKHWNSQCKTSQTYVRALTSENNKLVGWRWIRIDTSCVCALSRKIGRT

T2: BDNF (UniProt P23560 129-247)
T2 construct: also called brain-derived neurotrophic factor
T2 sequence (looked up): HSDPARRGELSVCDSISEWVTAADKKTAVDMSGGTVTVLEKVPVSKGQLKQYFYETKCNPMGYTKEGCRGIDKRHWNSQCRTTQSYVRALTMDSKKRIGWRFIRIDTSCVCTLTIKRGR

T3: NT4 (UniProt P34130 81-210)
T3 construct: also called neurotrophin-4
T3 sequence (looked up): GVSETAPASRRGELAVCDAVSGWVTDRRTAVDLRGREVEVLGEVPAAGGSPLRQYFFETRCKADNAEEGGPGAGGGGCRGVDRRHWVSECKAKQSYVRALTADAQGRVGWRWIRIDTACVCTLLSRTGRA

B1: Ab6 (antibody, human IgG1, V domains shown)
VH: EVQLVQSGAEVKKPGATVKISCKVSGYTFITYWISWVQQAPGKGLEWMGAIDPSDSDARYSPSFQGRVTITADTSTDTAYMELSSLRSEDTAVYYCAKSDPGYSGYSLLYGFDSWGQGTLVTVSS
VL: DVVMTQSPLSLPVTLGQPASISCRSSQSLVQRNGNTYLSWFQQRPGQPPRLLIYQVSNRYSGVPDRFSGSGSGTDFTLKISRVEAEDVGVYYCGQGAHLPLTFGQGTKVEIK
B2: Ab55 (antibody, human IgG1, V domains shown)
VH: EVQLVQSGAEVKKPGESLKISCKISGYSFITYWISWVRQMPGKGLEWMGAIDPSDSDARYSPSFQGQVTISADKSISTAYLQWSSLKASDTAMYYCAKSDPGYSGYSLLYGFDSWGQGTLVTVSS
VL: B1 VL with F41Y
B3: Ab16 (antibody, human IgG1, V domains shown)
VH: B1 VH with T28S
VL: B1 VL
B4: Ab36 (antibody, human IgG1, V domains shown)
VH: B1 VH with T74K
VL: B1 VL
B5: Ab54 (antibody, human IgG1, V domains shown)
VH: B2 VH
VL: B1 VL with F41Y, P48S
B6: Ab10 (antibody, human IgG1, V domains shown)
VH: B1 VH
VL: B1 VL with V2I
B7: Ab37 (antibody, human IgG1, V domains shown)
VH: B1 VH with T74K
VL: B1 VL with V2I, P48S
B8: Tanezumab (antibody, part only; not given: constant regions, V domains shown, not shown: another chain or arm of the molecule)
VH: QVQLQESGPGLVKPSETLSLTCTVSGFSLIGYDLNWIRQPPGKGLEWIGIIWGDGTTDYNSAVKSRVTISKDTSKNQFSLKLSSVTAADTAVYYCARGGYWYATSYYFDYWGQGTLVTVSS
VL: DIQMTQSPSSLSASVGDRVTITCRASQSISNNLNWYQQKPGKAPKLLIYYTSRFHSGVPSRFSGSGSGTDFTFTISSLQPEDIATYYCQQEHTLPYTFGQGTKLEIK
B9: Ab44 (antibody, human IgG1, V domains shown)
VH: B2 VH with I24G
VL: B1 VL with F41Y, P48S
B10: Ab49 (antibody, human IgG1, V domains shown)
VH: B2 VH with I24G
VL: B1 VL with V2I, F41Y
B11: Ab59 (antibody, human IgG1, V domains shown)
VH: B2 VH
VL: B1 VL with V2I, F41Y
B12: Ab56 (antibody, human IgG1, V domains shown)
VH: B2 VH
VL: B1 VL
B13: Ab57 (antibody, human IgG1, V domains shown)
VH: B2 VH
VL: B1 VL with V2I, P48S
B14: Ab47 (antibody, human IgG1, V domains shown)
VH: B2 VH with I24G
VL: B1 VL with V2I, P48S
B15: Ab46 (antibody, human IgG1, V domains shown)
VH: B2 VH with I24G
VL: B1 VL
B16: Ab42 (antibody, human IgG1, V domains shown)
VH: B2 VH with I24G
VL: B1 VL with V2I, S7T, L11S, F41Y, S72A
B17: Ab48 (antibody, human IgG1, V domains shown)
VH: B2 VH with I24G
VL: B1 VL with V2I, F41Y, P48S
B18: Ab45 (antibody, human IgG1, V domains shown)
VH: B2 VH with I24G
VL: B1 VL with F41Y
B19: Ab52 (antibody, human IgG1, V domains shown)
VH: B2 VH
VL: B1 VL with V2I, S7T, L11S, F41Y, S72A
B20: Ab58 (antibody, human IgG1, V domains shown)
VH: B2 VH
VL: B1 VL with V2I, F41Y, P48S
B21: Ab60 (antibody, human IgG1, V domains shown)
VH: B2 VH
VL: B1 VL with V2I

What follows are binders tested against T4, human NGF (R&D system) (human, UniProt P01138 122-241) (assay: cell-based or functional assay).
T4 sequence (P01138 122-241 limits assumed): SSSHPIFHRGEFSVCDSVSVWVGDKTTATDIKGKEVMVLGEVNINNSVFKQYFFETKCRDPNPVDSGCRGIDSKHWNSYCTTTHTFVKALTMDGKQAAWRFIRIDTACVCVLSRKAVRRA

TF1 Cell Proliferation Inhibition Assay IC50 | Binder
170 pM | B1
184 pM | B2
300 pM | B3
234 pM | B4
184 pM | B5
254 pM | B6
257 pM | B7

Biological target: T4, human NGF (R&D system)
Assay: cell-based or functional assay
Remark: another data set of the same source

Chicken DRG Neurite Outgrowth Inhibition Assay IC50 | TF1 Cell Proliferation Inhibition Assay IC50 | Binder
72.7 pM | 170 pM | B8

What follows are binders tested against T1, NT3 (assay: ELISA).

binding result | Binder
no binding (tested: 100 µg/mL) | B1
no binding (tested: 100 µg/mL) | B9
no binding (tested: 100 µg/mL) | B4
no binding (tested: 100 µg/mL) | B5

These binders were tested against T2, BDNF (assay: ELISA).

binding result | Binder
no binding (tested: 100 µg/mL) | B1
no binding (tested: 100 µg/mL) | B9
no binding (tested: 100 µg/mL) | B4
no binding (tested: 100 µg/mL) | B5

These binders were tested against T3, NT4 (assay: ELISA).

binding result | Binder
no binding (tested: 100 µg/mL) | B1
no binding (tested: 100 µg/mL) | B9
no binding (tested: 100 µg/mL) | B4
no binding (tested: 100 µg/mL) | B5

What follows are binders tested against T5, human NGF-Fc4 (IgG4-Fc) (human, UniProt P01138 122-241, limits assumed) (assay: competition ELISA: antibody pre-incubated with human NGF-Fc4, binding to coated TrkA-Fc).
T5 construct: not shown: human IgG4 Fc
Experimental: TrkA inhibition ELISA assay: The TrkA inhibition ELISA assay was designed to identify the anti-NGF antibodies that have the capability of blocking NGF binding to its receptor TrkA. In this assay, human TrkA-Fc (IgG1-Fc, Sinobiological) was coated at 1 μg/ml in the 96-well plates and incubated overnight at 4° C. Antibodies, from cell culture supernatants or after purified, in different dilutions, were pre-incubated with human NGF-Fc4 (IgG4-Fc) at a final concentration of 70 ng/mL for 2 hours in 37° C. A total of 50 μl of the reaction mixtures were then transferred into the TrkA-Fc coated 96-well plates and incubated in room temperature for 2 hours. After washing, a secondary mouse anti-human IgG4-AP (Southern biotech) was added at a dilution of 1:1000 After one hour in room temperature, the plates were washed, and after adding PNPP substrate, ODs at 405 nm were read.
TrkA inhibition ELISA assay: The optimized anti-NGF antibodies Ab4, Ab6, Ab10, Ab16, Ab36, Ab37, Ab44, Ab45, Ab46, Ab47, Ab48, Ab49, Ab52, Ab54, Ab55, Ab56, Ab57, Ab58, Ab59, Ab60, Ab61 and the reference antibody Tanezumab (Pfizer), a humanized antibody from mouse hybridoma were further analyzed for their abilities to block NGF binding to its receptor TrkA. TrkA inhibition assay was performed as described in Example 1.

T5 sequence (P01138 122-241 limits assumed): as above

IC50 | Binder
0.0769 µg/mL | B1
0.0878 µg/mL | B10
0.13 µg/mL | B9
0.0747 µg/mL | B11
0.0757 µg/mL | B2
0.0735 µg/mL | B3
0.0899 µg/mL | B4
0.0665 µg/mL | B12
0.0702 µg/mL | B5
0.0804 µg/mL | B6
0.132 µg/mL | B7
0.0732 µg/mL | B13
0.0662 µg/mL | B14
0.0533 µg/mL | B15
0.0773 µg/mL | B16
0.0935 µg/mL | B17
0.0898 µg/mL | B18
0.0702 µg/mL | B19
0.08 µg/mL | B20
0.0434 µg/mL | B21
0.0602 µg/mL | B8

These binders were tested against T5, human NGF-Fc4 (IgG4-Fc) (assay: competition ELISA: antibody pre-incubated with human NGF-Fc4, binding to coated p75-Fc).
Experimental: p75 inhibition ELISA assay: The p75 inhibition assay was designed to identify anti-NGF antibodies that were capable of inhibiting NGF binding to p75. In this assay, human p75-Fc (IgG1-Fc, Sinobiological) was coated at 1 μg/mL in the 96-well plates and incubated overnight at 4° C. Anti-NGF antibodies, from supernatants directly or after purified, in different dilutions, were pre-incubated with human NGF-Fc4 (IgG4-Fc) at a final concentration of 350 ng/mL for 2 hours in 37° C. A total of 50 μl of the reaction mixtures were then transferred into the p75-Fc coated 96-well plates and incubated in room temperature for 2 hrs. After washing, a secondary mouse anti-human IgG4-AP (Southern biotech) was added at a dilution of 1:1000. After 1 hour in room temperature, the plates were washed, and after adding PNPP substrate, ODs at 405 nm were read.
p75 inhibition ELISA assay: The optimized anti-NGF antibodies Ab4, Ab61, and the reference antibody Tanezumab, a humanized antibody from mouse hybridoma were further analyzed for their abilities to block NGF binding to its receptor p75. P75 inhibition assay was performed as described in Example 1.

IC50 | Binder
0.525 µg/mL | B8

Each binder was assayed against recombinantly produced human-NGF (human, UniProt P01138 122-241, limits assumed) (assay: ELISA, human NGF coated, IgG titrated).
In short: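 Plates coated overnight at 4 °C with recombinant human NGF at 1 μg/ml, blocked with PBS/1% BSA. Serially diluted purified antibodies or 1:1 supernatants bound 2 h at 37 °C; detection with AP anti-human IgG Fc (1:3000, 1 h RT), PNPP substrate, OD 405 nm.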

recombinantly produced human-NGF, sequence (P01138 122-241 limits assumed): as above

EC50 | Binder
0.021 ng/mL | B1
0.00957 ng/mL | B10
0.0129 ng/mL | B9
0.0122 ng/mL | B11
0.0185 ng/mL | B2
0.0173 ng/mL | B3
0.0218 ng/mL | B4
0.0145 ng/mL | B12
0.0257 ng/mL | B5
0.0134 ng/mL | B6
0.0317 ng/mL | B7
0.011 ng/mL | B13
0.00942 ng/mL | B14
0.0169 ng/mL | B15
0.0132 ng/mL | B16
0.0156 ng/mL | B17
0.0166 ng/mL | B18
0.0206 ng/mL | B19
0.0153 ng/mL | B20
0.00896 ng/mL | B21
0.00937 ng/mL | B8
